Assay results as given in patent US20070065468A1.

Biological target: mite allergen specific IgE of atopic subjects
Assay: cell-based or functional assay

B1: CHO-K1-expressed three-in-one chimeric mite allergen D1proenzD1LB5LD2 (protein)
chain: RPSSIKTFEEYKKAFNKSYATFEDEEAARKNFLESVKYVQSNGGAINHLSDLSLDEFKNRFLMSAEAFEHLKTQFDLNAETNACSINGNAPAEIDLRQMRTVTPIRMQGGCGSCWAFSGVAATESAYLAYRNQSLDLAEQELVDCASQHGCHGDTIPRGIEYIQHNGVVQESYYRYVAREQSCRRPNAQRFGISNYCQIYPPNVNKIREALAQTHSAIAVIIGIKDLDAFRHYDGRTIIQRDNGYQPNYHAVNIVGYSNAQGVDYWIVRNSWDTNWGDNGYGYFAANIDLMMIEEYPYVVILGGGSGGGSGGQEHKPKKDDFRNEFDHLLIEQANHAIEKGEHQLLYLQHQLDELNENKSKELQEKIIRELDVVCAMIEGAQGALERELKRTDLNILERFNYEEAQTLSKILLKDLKETEQKVKDIQTQGGGSGGGSGGDQVDVKDCANHEIKKVLVPGCHGSEPCIIHRGKPFQLEAVFEANQNTKTAKIEIKASIDGLEVDVPGIDPNACHYMKCPLVKGQQYDIKYTWNVPKIAPKSENVVVTVKVMGDDGVLACAIATHAKIRD
**Q.** What does the source list for B1?
**A.** fold decrease in IgE-mediated histamine release by human basophils: 100 times; histamine release in basophils (whole blood of two atopic individuals): 104 fold; skin prick test, positive skin reactivity in 15 atopic subjects: 26.6%
